T1: mouse ROBO4 (pCI-mROBO4-transfected HEK293 cells) (mouse, UniProt Q8C310 28-1012)
T1 sequence: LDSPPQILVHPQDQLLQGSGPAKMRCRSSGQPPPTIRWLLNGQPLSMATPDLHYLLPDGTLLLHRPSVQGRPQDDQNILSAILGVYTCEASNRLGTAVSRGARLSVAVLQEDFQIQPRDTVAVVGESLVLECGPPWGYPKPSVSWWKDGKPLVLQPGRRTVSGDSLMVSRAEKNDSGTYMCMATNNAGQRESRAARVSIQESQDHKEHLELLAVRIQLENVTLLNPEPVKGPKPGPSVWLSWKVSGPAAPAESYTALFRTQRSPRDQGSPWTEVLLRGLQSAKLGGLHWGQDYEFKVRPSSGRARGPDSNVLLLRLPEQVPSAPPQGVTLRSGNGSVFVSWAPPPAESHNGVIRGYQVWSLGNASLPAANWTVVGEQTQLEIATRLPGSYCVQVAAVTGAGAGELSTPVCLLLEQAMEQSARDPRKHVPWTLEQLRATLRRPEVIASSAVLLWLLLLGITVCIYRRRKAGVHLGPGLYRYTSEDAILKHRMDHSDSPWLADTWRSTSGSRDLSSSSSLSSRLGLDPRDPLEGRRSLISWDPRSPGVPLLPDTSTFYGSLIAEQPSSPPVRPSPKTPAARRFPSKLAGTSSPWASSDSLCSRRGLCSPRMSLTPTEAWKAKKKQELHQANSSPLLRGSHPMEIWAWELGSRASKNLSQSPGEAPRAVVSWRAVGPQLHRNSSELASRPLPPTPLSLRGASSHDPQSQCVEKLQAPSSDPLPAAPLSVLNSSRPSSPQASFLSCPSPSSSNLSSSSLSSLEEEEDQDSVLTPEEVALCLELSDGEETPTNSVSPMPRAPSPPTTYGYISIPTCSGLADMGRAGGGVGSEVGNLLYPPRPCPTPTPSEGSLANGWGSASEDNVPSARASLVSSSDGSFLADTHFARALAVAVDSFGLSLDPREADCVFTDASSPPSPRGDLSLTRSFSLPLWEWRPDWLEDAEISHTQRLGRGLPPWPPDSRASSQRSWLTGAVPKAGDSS

T2: rat ROBO4 (pCI-raROBO4-transfected HEK293 cells) (rat, UniProt Q80W87 38-949 at identity 0.93))
T2 chain: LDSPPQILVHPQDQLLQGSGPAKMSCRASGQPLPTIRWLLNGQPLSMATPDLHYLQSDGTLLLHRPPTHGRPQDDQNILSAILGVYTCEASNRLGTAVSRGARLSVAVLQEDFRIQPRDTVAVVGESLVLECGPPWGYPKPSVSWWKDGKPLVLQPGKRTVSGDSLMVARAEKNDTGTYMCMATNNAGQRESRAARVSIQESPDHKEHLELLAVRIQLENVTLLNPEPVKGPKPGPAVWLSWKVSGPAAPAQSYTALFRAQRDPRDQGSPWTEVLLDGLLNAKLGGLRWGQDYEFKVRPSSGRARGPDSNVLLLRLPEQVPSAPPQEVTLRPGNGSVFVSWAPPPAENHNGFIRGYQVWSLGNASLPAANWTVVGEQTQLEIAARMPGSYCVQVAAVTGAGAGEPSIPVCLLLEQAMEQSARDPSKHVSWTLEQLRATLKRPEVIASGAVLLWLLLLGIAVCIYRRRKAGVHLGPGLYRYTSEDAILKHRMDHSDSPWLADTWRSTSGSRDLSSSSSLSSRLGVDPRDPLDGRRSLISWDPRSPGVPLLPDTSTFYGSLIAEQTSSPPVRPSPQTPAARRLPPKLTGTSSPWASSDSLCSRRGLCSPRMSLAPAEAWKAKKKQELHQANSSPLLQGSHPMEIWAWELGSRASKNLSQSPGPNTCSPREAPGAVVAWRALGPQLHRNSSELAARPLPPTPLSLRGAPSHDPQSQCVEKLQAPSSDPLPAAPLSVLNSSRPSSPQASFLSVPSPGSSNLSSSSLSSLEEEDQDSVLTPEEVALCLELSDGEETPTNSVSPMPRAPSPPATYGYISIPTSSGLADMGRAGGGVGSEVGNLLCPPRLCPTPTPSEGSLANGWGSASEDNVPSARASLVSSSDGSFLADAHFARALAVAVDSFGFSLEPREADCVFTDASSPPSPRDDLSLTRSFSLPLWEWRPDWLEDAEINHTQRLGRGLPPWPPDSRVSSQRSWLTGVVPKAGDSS

B1: humanized MAb1 antibody H-2143 (antibody, human IgG2, kappa, V domains shown)
VH: EVQLVESGGGLVQPGGSLRLSCAASGFTFSTYAMSWVRQAPGKRLEWVATISQGGTYTYYPDSVKGRFTISRDNAKNTLYLQMNSLRAEDTAVYYCARLIYYDYLDYWGQGTLVTVSS
VL: DIVMTQSPLSLPVTLGEPASISCRSSQSLENENKNLYLNWYLQKPGQSPQLLIYRVSNRFSGVPDRFSGSGSGTDFTLKISRVEAEDVGVYYCLQVTHVPWTFGPGTKVDIKR
notes: Human IgG2 / kappa constant regions; also called hMAb1-H4-type heavy chain + hMAb1-L2-type light chain
B2: anti-ROBO4 mouse monoclonal antibody MAb1 (antibody, mouse IgG1, V domains shown)
VH: EVQLVESGGGLVKPGGSLKLSCAASGFTFSTYAMSWVRQTPEKRLEWVATISNGGTYTYYPDSVKGRFTISRDNAENTLYLQMSSLRSEDTAMYFCARLIYYDYLDYWGHGTTLTVSS
VL: DAVMTQTPLSLPVSLGDQASISCRSSQSLENSNGNTYLNWYFQKPGQSPQLLIYRVSNRFSGVLDRFSGSGSGTDFTLKISRVEAEDFGVYFCLQVTHVPWTFGGGTKLEIKR
notes: Mouse IgG1 (gamma1), kappa light chain, purified from hybridoma supernatant; also called parent antibody MAb1

Assays:
[1] = target: T1, mouse ROBO4 (pCI-mROBO4-transfected …); assay: flow cytometry (FC500), HEK293 cells transfected with pCI-mROBO4, FITC goat anti-human IgG Fc; control histogram IgG (human IgG)
[2] = target: T2, rat ROBO4 (pCI-raROBO4-transfected …); assay: flow cytometry, HEK293 cells transfected with pCI-raROBO4, anti-mouse IgG FITC; control histogram IgG (Mouse IgG2a)
Protocol: HEK293 cells were inoculated at a concentration of 1.5×10⁶ cells/dish to a 60-mm dish (manufactured by Corning Inc.) and cultured overnight in a DMEM medium containing 10% FBS at 37° C. under 5% CO₂ conditions. On the next day, the HEK293 cells were transfected with pCI-hROBO4, pCI-mROBO4, pCI-raROBO4, pCI-FLAG-cynoROBO4-1, pCI-FLAG-cynoROBO4-2, pCI-hROBO1, pCI-hROBO2, or pCI-hROBO3 using FuGENE6 Transfection Reagent and further cultured overnight at 37° C. under 5% CO₂ conditions. On the next day, the expression vector-transfected cells were treated with TrypLE Express (manufactured by Life Technologies Corp.), washed with PBS containing 5% FBS, and then suspended in PBS containing 5% FBS. The obtained cell suspension was used in flow cytometry analysis.
Each cell suspension prepared in 4)-3-1 was centrifuged, and the supernatant was removed. Then, MAb1 or a negative control Mouse IgG2a was added at a concentration of 10 μg/mL to 2×10⁵ expression vector-transfected cells, and the resulting suspension was left standing at 4° C. for 1 hour. […] Data was analyzed using Flowjo. The histogram of FITC fluorescence intensity was prepared. The antibody was determined to bind in a cross-species manner when the histogram of MAb1 was shifted to a stronger fluorescence intensity region compared with the histogram of the negative control Mouse IgG2a.

Binder | binding result [1] | binding result [2]
B1 | no binding (tested: 10 µg/mL) | –
B2 | – | no binding (tested: 10 µg/mL)

Source: patent US20150098945A1 (Daiichi Sankyo, published 2015)
